Laboratory results: patent publication US20060234945A1, “Ophthalmic therapeutic composition” (Nihon Tenganyaku Kenkyusho Co., LTD., priority 2002, published 2006)

Test system: rabbit corneal wound model
Test: Corneal wound healing promotion action 1 (in vivo), approx. 6 mm corneal epithelial abrasion
Set-up: species or system Japanese white rabbit
Details: 5 μM eye drop
Method: (2) Corneal Wound Healing Promotion Action 1 (In Vivo)
Using a male Japanese white rabbit, a wound of approximately 6 mm in diameter was produced in the cornea by inducing corneal epithelial abrasion in accordance with the method of Cintron et al. (Ophthalmic Res., 11, pp. 90-96 (1979)). The wound area was measured using the fluorescein-stained area as an index. The effects of the test compound on corneal wound healing were examined.
The eye drops containing the respective concentrations of the test compound were instilled (30 μl at a time) at 0, 3, 6, 9, 12, 18, 24, 27, 30, 33, 36, 42, and 48 hours after inducing corneal epithelial abrasion. In measuring the wound area, fluorescein staining was carried out and a photograph of the cornea was measured. The fluorescein-stained area of the photographed cornea was computed using an image analysis processing system.
In Tables 1 and 2, the respective values indicate the mean value±standard deviation (n=6). Statistical analysis was carried out using Dunnett's multiple comparison with respect to PBS with the area of the corneal wound portion immediately after (0 hours after) corneal epithelial abrasion being set to 100% (*p<0.05, ** p<0.01; vs. control).

B1: EGF: Epidermal Growth Factor, polypeptide with a molecular weight of 6000, mitosis-promoting growth factor for corneal epithelium (protein, UniProt P01133 23-1207, looked up)
Pro-epidermal growth factor: PQHWSCPEGTLAGNGNSTCVGPAPFLIFSHGNSIFRIDTEGTNYEQLVVDAGVSVIMDFHYNEKRIYWVDLERQLLQRVFLNGSRQERVCNIEKNVSGMAINWINEEVIWSNQQEGIITVTDMKGNNSHILLSALKYPANVAVDPVERFIFWSSEVAGSLYRADLDGVGVKALLETSEKITAVSLDVLDKRLFWIQYNREGSNSLICSCDYDGGSVHISKHPTQHNLFAMSLFGDRIFYSTWKMKTIWIANKHTGKDMVRINLHSSFVPLGELKVVHPLAQPKAEDDTWEPEQKLCKLRKGNCSSTVCGQDLQSHLCMCAEGYALSRDRKYCEDVNECAFWNHGCTLGCKNTPGSYYCTCPVGFVLLPDGKRCHQLVSCPRNVSECSHDCVLTSEGPLCFCPEGSVLERDGKTCSGCSSPDNGGCSQLCVPLSPVSWECDCFPGYDLQLDEKSCAASGPQPFLLFANSQDIRHMHFDGTDYGTLLSQQMGMVYALDHDPVENKIYFAHTALKWIERANMDGSQRERLIEEGVDVPEGLAVDWIGRRFYWTDRGKSLIGRSDLNGKRSKIITKENISQPRGIAVHPMAKRLFWTDTGINPRIESSSLQGLGRLVIASSDLIWPSGITIDFLTDKLYWCDAKQSVIEMANLDGSKRRRLTQNDVGHPFAVAVFEDYVWFSDWAMPSVMRVNKRTGKDRVRLQGSMLKPSSLVVVHPLAKPGADPCLYQNGGCEHICKKRLGTAWCSCREGFMKASDGKTCLALDGHQLLAGGEVDLKNQVTPLDILSKTRVSEDNITESQHMLVAEIMVSDQDDCAPVGCSMYARCISEGEDATCQCLKGFAGDGKLCSDIDECEMGVPVCPPASSKCINTEGGYVCRCSEGYQGDGIHCLDIDECQLGEHSCGENASCTNTEGGYTCMCAGRLSEPGLICPDSTPPPHLREDDHHYSVRNSDSECPLSHDGYCLHDGVCMYIEALDKYACNCVVGYIGERCQYRDLKWWELRHAGHGQQQKVIVVAVCVVVLVMLLLLSLWGAHYYRTQKLLSKNPKNPYEESSRDVRSRRPADTEDGMSSCPQPWFVVIKEHQDLKNGGQPVAGEDGQAADGSMQPTSWRQEPQLCGMGTEQGCWIPVSSDKGSCPQVMERSFHMPSYGTQTLEGGVEKPHSLLSANPLWQQRALDPPHQMELTQ
modifications: Pro-epidermal growth factor
notes: Epidermal Growth Factor, polypeptide with a molecular weight of 6000, mitosis-promoting growth factor for corneal epithelium
0 hr (baseline)
  Healing ratio (%): 0%
6 hr
  Healing ratio (%): 14.49 ± 3.42%
12 hr
  Healing ratio (%): 31.63 ± 1.29%
24 hr
  Healing ratio (%): 70.78 ± 6.91%
36 hr
  Healing ratio (%): 96.41 ± 3.97%
48 hr
  Healing ratio (%): 99.58 ± 1.03%
